To fix the notation:
T1: Ax1 protein, extracellular domain (human, UniProt P30530 26-451)
T1 construct: extracellular domain; also called Axl; Ark
T1 sequence (looked up): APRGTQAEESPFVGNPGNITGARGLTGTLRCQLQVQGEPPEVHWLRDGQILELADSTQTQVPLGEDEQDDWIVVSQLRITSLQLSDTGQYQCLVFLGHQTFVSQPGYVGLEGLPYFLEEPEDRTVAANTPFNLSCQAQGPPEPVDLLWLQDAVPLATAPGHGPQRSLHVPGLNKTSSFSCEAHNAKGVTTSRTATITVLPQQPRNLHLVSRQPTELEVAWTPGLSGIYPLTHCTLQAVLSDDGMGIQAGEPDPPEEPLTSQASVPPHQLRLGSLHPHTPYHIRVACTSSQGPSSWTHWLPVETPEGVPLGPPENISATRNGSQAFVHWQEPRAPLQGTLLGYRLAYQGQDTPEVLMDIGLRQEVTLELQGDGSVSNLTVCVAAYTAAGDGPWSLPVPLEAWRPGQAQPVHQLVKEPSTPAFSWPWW

B1: LC-A051N (antibody, V domains shown)
VH: EVQLVQSGAEVKKPGATVKISCKVSGYSFTGHTMNWIRQPPGKGLEWIGLIKPSNGGTSYNQKFKGRVTISADKSISTAYLQWSSLKASDTAMYYCAHGHYESYFAMDYWGQGTLVTVSS
VL: DIQMTQSPSSLSASVGDRVTITCKASQDVSSAVAWYQQKPGQAPRLLIYWNSTRHTGVPSRFSGSGSGTEFTLTISSLQPDDFATYYCQEHFSTPLTFGQGTKVEIK
notes: CPE single point mutant
B2: LC-P095K (antibody, V domains shown)
VH: B1 VH
VL: B1 VL with N51A, P95K
notes: CPE single point mutant
B3: LC-V029G (antibody, V domains shown)
VH: B1 VH
VL: B1 VL with V29G, N51A
notes: CPE single point mutant
B4: LC-H091L (antibody, V domains shown)
VH: B1 VH
VL: B1 VL with N51A, H91L
notes: CPE single point mutant
B5: LC-P095A (antibody, V domains shown)
VH: B1 VH
VL: B1 VL with N51A, P95A
notes: CPE single point mutant
B6: LC-P095V (antibody, V domains shown)
VH: B1 VH
VL: B1 VL with N51A, P95V
notes: CPE single point mutant
B7: LC-P095H (antibody, V domains shown)
VH: B1 VH
VL: B1 VL with N51A, P95H
notes: CPE single point mutant
B8: LC-H091T (antibody, V domains shown)
VH: B1 VH
VL: B1 VL with N51A, H91T
notes: CPE single point mutant
B9: LC-H091S (antibody, V domains shown)
VH: B1 VH
VL: B1 VL with N51A, H91S
notes: CPE single point mutant
B10: LC-H091V (antibody, V domains shown)
VH: B1 VH
VL: B1 VL with N51A, H91V
notes: CPE single point mutant
B11: LC-P095T (antibody, V domains shown)
VH: B1 VH
VL: B1 VL with N51A, P95T
notes: CPE single point mutant
B12: LC-H091C (antibody, V domains shown)
VH: B1 VH
VL: B1 VL with N51A, H91C
notes: CPE single point mutant
B13: LC-H091Y (antibody, V domains shown)
VH: B1 VH
VL: B1 VL with N51A, H91Y
notes: CPE single point mutant
B14: LC-V029W (antibody, V domains shown)
VH: B1 VH
VL: B1 VL with V29W, N51A
notes: CPE single point mutant
B15: LC-F092G (antibody, V domains shown)
VH: B1 VH
VL: B1 VL with N51A, F92G
notes: CPE single point mutant
B16: LC-F092N (antibody, V domains shown)
VH: B1 VH
VL: B1 VL with N51A, F92N
notes: CPE single point mutant
B17: LC-V029N (antibody, V domains shown)
VH: B1 VH
VL: B1 VL with V29N, N51A
notes: CPE single point mutant
B18: LC-F092C (antibody, V domains shown)
VH: B1 VH
VL: B1 VL with N51A, F92C
notes: CPE single point mutant
B19: LC-T097I (antibody, V domains shown)
VH: B1 VH
VL: B1 VL with N51A, T97I
notes: CPE single point mutant
B20: LC-P095C (antibody, V domains shown)
VH: B1 VH
VL: B1 VL with N51A, P95C
notes: CPE single point mutant
B21: LC-A051P (antibody, V domains shown)
VH: B1 VH
VL: B1 VL with N51P
notes: CPE single point mutant
B22: LC-F092D (antibody, V domains shown)
VH: B1 VH
VL: B1 VL with N51A, F92D
notes: CPE single point mutant
B23: LC-F092S (antibody, V domains shown)
VH: B1 VH
VL: B1 VL with N51A, F92S
notes: CPE single point mutant
B24: LC-V029D (antibody, V domains shown)
VH: B1 VH
VL: B1 VL with V29D, N51A
notes: CPE single point mutant
B25: LC-W050F (antibody, V domains shown)
VH: B1 VH
VL: B1 VL with W50F, N51A
notes: CPE single point mutant
B26: LC-P095W (antibody, V domains shown)
VH: B1 VH
VL: B1 VL with N51A, P95W
notes: CPE single point mutant
B27: LC-P095S (antibody, V domains shown)
VH: B1 VH
VL: B1 VL with N51A, P95S
notes: CPE single point mutant
B28: LC-P095E (antibody, V domains shown)
VH: B1 VH
VL: B1 VL with N51A, P95E
notes: CPE single point mutant
B29: LC-P095D (antibody, V domains shown)
VH: B1 VH
VL: B1 VL with N51A, P95D
notes: CPE single point mutant
B30: LC-F092E (antibody, V domains shown)
VH: B1 VH
VL: B1 VL with N51A, F92E
notes: CPE single point mutant

Consider 30 molecules from US20240199746A1 (published 2024).

Changes are numbered by the printed parent chain.

The first assay concerns the target T1, Ax1 protein, extracellular domain. Kind of assay: ELISA, mutant diluted 1:3. The procedure, abridged: (§1)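 Single-point-mutant antibody library from Comprehensive Positional Evolution, screened by ELISA for selective binding to the Ax1 extracellular domain at pH 6.0 over pH 7.4. Mutant antibodies tested at 1:3 and 1:9 dilutions.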
On to B1, for which the “Affinity ELISA CPE mutant ratio (1:3, pH 6.0/7.4)” value worked out at 1.41.

On to B2, for which the “Affinity ELISA CPE mutant ratio (1:3, pH 6.0/7.4)” value amounted to 3.84.

B3: the “Affinity ELISA CPE mutant ratio (1:3, pH 6.0/7.4)” value came out at 1.94.

B4: the “Affinity ELISA CPE mutant ratio (1:3, pH 6.0/7.4)” value came out at 2.17.

Regarding B5, the “Affinity ELISA CPE mutant ratio (1:3, pH 6.0/7.4)” value was determined as 2.52.

For the molecule B6, the “Affinity ELISA CPE mutant ratio (1:3, pH 6.0/7.4)” value came out at 1.87.

For the molecule B7, the “Affinity ELISA CPE mutant ratio (1:3, pH 6.0/7.4)” value came out at 2.5.

For the molecule B8, the “Affinity ELISA CPE mutant ratio (1:3, pH 6.0/7.4)” value was found to be 3.78.

As to B9, the “Affinity ELISA CPE mutant ratio (1:3, pH 6.0/7.4)” value came out at 1.76.

Take B10: the “Affinity ELISA CPE mutant ratio (1:3, pH 6.0/7.4)” value was determined as 4.13.

B11: the “Affinity ELISA CPE mutant ratio (1:3, pH 6.0/7.4)” value came out at 2.5.

Consider B12, for which the “Affinity ELISA CPE mutant ratio (1:3, pH 6.0/7.4)” value amounted to 4.

With B13, the “Affinity ELISA CPE mutant ratio (1:3, pH 6.0/7.4)” value is 3.93.

As to B14, the “Affinity ELISA CPE mutant ratio (1:3, pH 6.0/7.4)” value is 2.31.

Consider B15, for which the “Affinity ELISA CPE mutant ratio (1:3, pH 6.0/7.4)” value stood at 3.69.

For B16, the “Affinity ELISA CPE mutant ratio (1:3, pH 6.0/7.4)” value was determined as 1.93.

For the molecule B17, the “Affinity ELISA CPE mutant ratio (1:3, pH 6.0/7.4)” value turned out to be 2.6.

Consider B18, for which the “Affinity ELISA CPE mutant ratio (1:3, pH 6.0/7.4)” value turned out to be 3.86.

Regarding B19, the “Affinity ELISA CPE mutant ratio (1:3, pH 6.0/7.4)” value was found to be 3.09.

As to B20, the “Affinity ELISA CPE mutant ratio (1:3, pH 6.0/7.4)” value came out at 2.35.

On to B21, for which the “Affinity ELISA CPE mutant ratio (1:3, pH 6.0/7.4)” value came to 1.92.

For the molecule B22, the “Affinity ELISA CPE mutant ratio (1:3, pH 6.0/7.4)” value came out at 2.97.

Consider B23, for which the “Affinity ELISA CPE mutant ratio (1:3, pH 6.0/7.4)” value amounted to 3.18.

In the case of B24, the “Affinity ELISA CPE mutant ratio (1:3, pH 6.0/7.4)” value was 2.88.

Regarding B25, the “Affinity ELISA CPE mutant ratio (1:3, pH 6.0/7.4)” value amounted to 2.25.

Regarding B26, the “Affinity ELISA CPE mutant ratio (1:3, pH 6.0/7.4)” value was 2.15.

With B27, the “Affinity ELISA CPE mutant ratio (1:3, pH 6.0/7.4)” value was 2.84.

On to B28, for which the “Affinity ELISA CPE mutant ratio (1:3, pH 6.0/7.4)” value turned out to be 7.12.

For the molecule B29, the “Affinity ELISA CPE mutant ratio (1:3, pH 6.0/7.4)” value came to 3.95.

Turning to B30, the “Affinity ELISA CPE mutant ratio (1:3, pH 6.0/7.4)” value is 1.76.

The next assay shares this target. The experiment in a line: ELISA, mutant diluted 1:9. An outline of the steps:
as §1
For orientation: ELISA stands for enzyme-linked immunosorbent assay.
For B1, the “Affinity ELISA CPE mutant ratio (1:9, pH 6.0/7.4)” value came to 2.2.

On to B2, for which the “Affinity ELISA CPE mutant ratio (1:9, pH 6.0/7.4)” value is 3.47.

For the molecule B3, the “Affinity ELISA CPE mutant ratio (1:9, pH 6.0/7.4)” value worked out at 1.8.

On to B4, for which the “Affinity ELISA CPE mutant ratio (1:9, pH 6.0/7.4)” value worked out at 2.44.

As to B5, the “Affinity ELISA CPE mutant ratio (1:9, pH 6.0/7.4)” value was determined as 2.99.

As to B6, the “Affinity ELISA CPE mutant ratio (1:9, pH 6.0/7.4)” value came to 2.13.

With B7, the “Affinity ELISA CPE mutant ratio (1:9, pH 6.0/7.4)” value turned out to be 2.75.

In the case of B8, the “Affinity ELISA CPE mutant ratio (1:9, pH 6.0/7.4)” value came out at 3.7.

Turning to B9, the “Affinity ELISA CPE mutant ratio (1:9, pH 6.0/7.4)” value stood at 1.34.

In the case of B10, the “Affinity ELISA CPE mutant ratio (1:9, pH 6.0/7.4)” value turned out to be 1.17.

As for B11, the “Affinity ELISA CPE mutant ratio (1:9, pH 6.0/7.4)” value was determined as 2.09.

Regarding B12, the “Affinity ELISA CPE mutant ratio (1:9, pH 6.0/7.4)” value came to 3.02.

Take B13: the “Affinity ELISA CPE mutant ratio (1:9, pH 6.0/7.4)” value was 5.13.

In the case of B14, the “Affinity ELISA CPE mutant ratio (1:9, pH 6.0/7.4)” value is 2.35.

With B15, the “Affinity ELISA CPE mutant ratio (1:9, pH 6.0/7.4)” value was 4.76.

Turning to B16, the “Affinity ELISA CPE mutant ratio (1:9, pH 6.0/7.4)” value worked out at 2.

With B17, the “Affinity ELISA CPE mutant ratio (1:9, pH 6.0/7.4)” value was found to be 2.65.

In the case of B18, the “Affinity ELISA CPE mutant ratio (1:9, pH 6.0/7.4)” value amounted to 4.58.

B19: the “Affinity ELISA CPE mutant ratio (1:9, pH 6.0/7.4)” value came to 4.05.

For the molecule B20, the “Affinity ELISA CPE mutant ratio (1:9, pH 6.0/7.4)” value was determined as 2.63.

As for B21, the “Affinity ELISA CPE mutant ratio (1:9, pH 6.0/7.4)” value turned out to be 1.57.

For the molecule B22, the “Affinity ELISA CPE mutant ratio (1:9, pH 6.0/7.4)” value worked out at 2.94.

As to B23, the “Affinity ELISA CPE mutant ratio (1:9, pH 6.0/7.4)” value was 2.94.

As for B24, the “Affinity ELISA CPE mutant ratio (1:9, pH 6.0/7.4)” value was 2.68.

As to B25, the “Affinity ELISA CPE mutant ratio (1:9, pH 6.0/7.4)” value worked out at 3.5.

In the case of B26, the “Affinity ELISA CPE mutant ratio (1:9, pH 6.0/7.4)” value came out at 2.26.

B27: the “Affinity ELISA CPE mutant ratio (1:9, pH 6.0/7.4)” value was determined as 3.51.

As to B28, the “Affinity ELISA CPE mutant ratio (1:9, pH 6.0/7.4)” value came out at 7.51.

Take B29: the “Affinity ELISA CPE mutant ratio (1:9, pH 6.0/7.4)” value was determined as 2.89.

B30: the “Affinity ELISA CPE mutant ratio (1:9, pH 6.0/7.4)” value stood at 2.
